Target: T1, wild-type HCV E1E2 (genotype 1a, strain H77) expression construct with C-terminal V5 epitope tag (Hepatitis C virus genotype 1a, strain …, strain)
T1 construct: also called wild-type E1E2; E1E2 complex; source: HEK-293T, transfected, in fixed and permeabilised cells; not shown: V5, C-terminal, kept
Experiment: flow cytometry on cells; E1E2 library clones in HEK-293T, 22 h, fixed in 4% paraformaldehyde, permeabilised with 0.1% saponin; stained with mAb (0.33 to 2.0 ug/ml) or CD81-LEL-Fc, Alexa Fluor 488 secondary antibody; Intellicyt HTFC; signal as percent of wild-type E1E2 after subtraction of mock
Conditions: one partner purified

B1: monoclonal antibody AR3C (antibody, V domains shown)
VH: VQLLEQSGAEVKKPGSSVKVSCETSGGTFDNYALNWVRQAPGQGLEWIGGVVPLFGTTRNAQKFQGRVTISDDKSTGTGHMELRSLRSEDTAVYYCVRSVTPRYCGGGFCYGEFDYWGQGTLVTVSS
VL: EIELTQSPATLSVSPGERATLSCRASQSVSSNLAWYQQKPGQAPRLLIYGASTRATGIPARFSGSGSGTEFTLTVSRLEPEDSAVYFCQQYYRSPLTFGGGTKVEIK
notes: also called mAb AR3C
B1: binds.
